Series [1] deals with HeLa Kyoto. Description: solubility in G1/S (NP-40 vs SDS abundance) (log2 ratio); higher = more soluble. The following applies: cell cycle stage: G1/S.
The subject of series [2] is HeLa Kyoto. The series is described as follows: thermal stability score vs G1/S (z-score of summed log2 fold changes over temperatures); higher = more thermally stable than in G1/S.
Series [3] has as its system HeLa Kyoto. Description: solubility change mitosis vs G1/S (difference of NP-40 vs SDS log2 ratios) (log2 ratio difference); higher = more soluble in mitosis.
For series [4], the system named is HeLa Kyoto. Description: melting temperature (median over replicates), in situ; higher = more thermally stable.
Where [5] appears, read: cell cycle stage: early G1 (4.5 h after nocodazole release).

From the supplement of paper PMC5998384 come the findings set out here.
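Wherever melting temperature (median over replicates), in situ is given: HeLa Kyoto cells synchronized by double thymidine or nocodazole block, proteins quantified by TMT10plex mass spectrometry, three independent biological replicates.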
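Wherever solubility change mitosis vs G1/S (difference of NP-40 vs SDS log2 ratios) is given: synchronized HeLa Kyoto cells (double thymidine block for G1/S, nocodazole release for mitosis), protein amounts in NP-40 versus SDS lysates quantified by mass spectrometry, three biological replicates.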
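Wherever solubility in G1/S (NP-40 vs SDS abundance) is given: HeLa Kyoto cells arrested at G1/S by double thymidine block, proteins quantified by TMT10plex mass spectrometry in mild NP-40 versus SDS extracts, three biological replicates.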
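Wherever thermal stability score vs G1/S (z-score of summed log2 fold changes over temperatures) is given: synchronized HeLa Kyoto cells, proteins quantified by TMT10plex mass spectrometry, three biological replicates, mitosis taken 0.5 h after nocodazole release, G1/S directly after double thymidine block.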

Regarding “MAGGEDRGDGEPVSVVTVRVQYLEDTDPFACANFPEPRRAPTCSLDGALPLGAQIPAVHRLLGAPLKLEDCALQVSPSGYYLDTELSLEEQREMLEGFYEEISKGRKPTLILRTQLSVRVNAILEKLYSSSGPELRRSLFSLKQIFQEDKDLVPEFVHSEGLSCLIRVGAAADHNYQSYILRALGQLMLFVDGMLGVVAHSDTIQWLYTLCASLSRLVVKTALKLLLVFVEYSENNAPLFIRAVNSVASTTGAPPWANLVSILEEKNGADPELLVYTVTLINKTLAALPDQDSFYDVTDALEQQGMEALVQRHLGTAGTDVDLRTQLVLYENALKLEDGDIEEAPGAGGRRERRKPSSEEGKRSRRSLEGGGCPARAPEPGPTGPASPVGPTSSTGPALLTGPASSPVGPPSGLQASVNLFPTISVAPSADTSSERSIYKARFLENVAAAETEKQVALAQGRAETLAGAMPNEAGGHPDARQLWDSPETAPAARTPQSPAPCVLLRAQRSLAPEPKEPLIPASPKAEPIWELPTRAPRLSIGDLDFSDLGEDEDQDMLNVESVEAGKDIPAPSPPLPLLSGVPPPPPLPPPPPIKGPFPPPPPLPLAAPLPHSVPDSSALPTKRKTVKLFWRELKLAGGHGVSASRFGPCATLWASLDPVSVDTARLEHLFESRAKEVLPSKKAGEGRRTMTTVLDPKRSNAINIGLTTLPPVHVIKAALLNFDEFAVSKDGIEKLLTMMPTEEERQKIEEAQLANPDIPLGPAENFLMTLASIGGLAARLQLWAFKLDYDSMEREIAEPLFDLKVGMEQLVQNATFRCILATLLAVGNFLNGSQSSGFELSYLEKVSEVKDTVRRQSLLHHLCSLVLQTRPESSDLYSEIPALTRCAKVDFEQLTENLGQLERRSRAAEESLRSLAKHELAPALRARLTHFLDQCARRVAMLRIVHRRVCNRFHAFLLYLGYTPQAAREVRIMQFCHTLREFALEYRTCRERVLQQQQKQATYRERNKTRGRMITETEKFSGVAGEAPSNPSVPVAVSSGPGRGDADSHASMKSLLTSRPEDTTHNRRSRGMVQSSSPIMPTVGPSTASPEEPPGSSLPSDTSDEIMDLLVQSVTKSSPRALAARERKRSRGNRKSLRRTLKSGLGDDLVQALGLSKGPGLEV [FHOD1]”, the “solubility in G1/S (log2)” value in the series on HeLa Kyoto [1] is 0.185. For the same sequence, the thermal stability score with HeLa Kyoto [2] (setting [5]) came out at 1.05; in the series with HeLa Kyoto [2] (cell cycle stage: mitosis) it was 2.72. Moreover, the “solubility change mitosis (log2)” value with HeLa Kyoto [3] was -0.13. The results for the melting temperature with HeLa Kyoto [4] (cell cycle stage: G1/S) and in the series with HeLa Kyoto [4] (cell cycle stage: mitosis) were 48 °C and 48.1 °C, respectively.

“MAGGPPKALPSTGPHSLRDMPHPLAGSSSEEAVGGDSTPSPDLLMARSFGDKDLILPNGGTPAGTSSPASSSSLLNRLQLDDDIDGETRDLFVIVDDPKKHVCTMETYITYRITTKSTRVEFDLPEYSVRRRYQDFDWLRSKLEESQPTHLIPPLPEKFVVKGVVDRFSEEFVETRRKALDKFLKRITDHPVLSFNEHFNIFLTAKDLNAYKKQGIALLTRMGESVKHVTGGYKLRTRPLEFAAIGDYLDTFALKLGTIDRIAQRIIKEEIEYLVELREYGPVYSTWSALEGELAEPLEGVSACIGNCSTALEELTDDMTEDFLPVLREYILYSDSMKSVLKKRDQVQAEYEAKLEAVALRKEDRPKVPADVEKCQDRMECFNADLKADMERWQNNKRQDFRQLLMGMADKNIQYYEKCLMAWESIIPLLQEKQEAK [SNX30]”: the “solubility in G1/S (log2)” value with HeLa Kyoto [1] is 0.262. For the same sequence, the thermal stability score with HeLa Kyoto [2] (setting [5]) stood at 0.333; in the series on HeLa Kyoto [2] (cell cycle stage: mitosis), 1.76. The “solubility change mitosis (log2)” value in the series on HeLa Kyoto [3] was -0.31. In addition, the values for the melting temperature in the series with HeLa Kyoto [4] (cell cycle stage: G1/S) and in the series on HeLa Kyoto [4] (cell cycle stage: mitosis) were 50.1 °C and 50.7 °C, respectively.

In the case of “MAGKSSLFKVILLGDGGVGKSSLMNRYVTNKFDTQLFHTIGVEFLNKDLEVDGHFVTMQIWDTAGQERFRSLRTPFYRGSDCCLLTFSVDDSQSFQNLSNWKKEFIYYADVKEPESFPFVILGNKIDISERQVSTEEAQAWCRDNGDYPYFETSAKDATNVAAAFEEAVRRVLATEDRSDHLIQTDTVNLHRKPKPSSSCC [RAB9A]”, the “solubility in G1/S (log2)” value with HeLa Kyoto [1] was -0.0893. Moreover, the thermal stability score in the series on HeLa Kyoto [2] (setting [5]) is -1.81; in the series with HeLa Kyoto [2] (cell cycle stage: mitosis), -3.52. Further, the “solubility change mitosis (log2)” value with HeLa Kyoto [3] was -0.207. In addition, the results for the melting temperature in the series on HeLa Kyoto [4] (cell cycle stage: G1/S) and in the series on HeLa Kyoto [4] (cell cycle stage: mitosis) were 54.3 °C and 54.2 °C, respectively.

As for “MAGLPRRIIKETQRLLAEPVPGIKAEPDESNARYFHVVIAGPQDSPFEGGTFKLELFLPEEYPMAAPKVRFMTKIYHPNVDKLGRICLDILKDKWSPALQIRTVLLSIQALLSAPNPDDPLANDVAEQWKTNEAQAIETARAWTRLYAMNNI [UBE2N]”, the “solubility in G1/S (log2)” value in the series on HeLa Kyoto [1] was found to be 0.641. For the same sequence, the thermal stability score with HeLa Kyoto [2] (setting [5]) is -0.982; in the series on HeLa Kyoto [2] (cell cycle stage: mitosis), -0.49. Moreover, in the series with HeLa Kyoto [3], the “solubility change mitosis (log2)” value was 0.111. For the same sequence, the melting temperature in the series with HeLa Kyoto [4] (cell cycle stage: G1/S) and in the series on HeLa Kyoto [4] (cell cycle stage: mitosis) was 52.1 °C throughout.

Consider “MAGLTVRDPAVDRSLRSVFVGNIPYEATEEQLKDIFSEVGPVVSFRLVYDRETGKPKGYGFCEYQDQETALSAMRNLNGREFSGRALRVDNAASEKNKEELKSLGTGAPVIESPYGETISPEDAPESISKAVASLPPEQMFELMKQMKLCVQNSPQEARNMLLQNPQLAYALLQAQVVMRIVDPEIALKILHRQTNIPTLIAGNPQPVHGAGPGSGSNVSMNQQNPQAPQAQSLGGMHVNGAPPLMQASMQGGVPAPGQMPAAVTGPGPGSLAPGGGMQAQVGMPGSGPVSMERGQVPMQDPRAAMQRGSLPANVPTPRGLLGDAPNDPRGGTLLSVTGEVEPRGYLGPPHQGPPMHHVPGHESRGPPPHELRGGPLPEPRPLMAEPRGPMLDQRGPPLDGRGGRDPRGIDARGMEARAMEARGLDARGLEARAMEARAMEARAMEARAMEARAMEVRGMEARGMDTRGPVPGPRGPIPSGMQGPSPINMGAVVPQGSRQVPVMQGTGMQGASIQGGSQPGGFSPGQNQVTPQDHEKAALIMQVLQLTADQIAMLPPEQRQSILILKEQIQKSTGAP [CSTF2]”, for which the “solubility in G1/S (log2)” value in the series on HeLa Kyoto [1] was found to be 0.323. Also, the thermal stability score in the series with HeLa Kyoto [2] (setting [5]) is -0.643; with HeLa Kyoto [2] (cell cycle stage: mitosis), -0.392. In the series with HeLa Kyoto [3], the “solubility change mitosis (log2)” value turned out to be 0.172. The melting temperature with HeLa Kyoto [4] (cell cycle stage: G1/S) was determined as 53 °C; in the series with HeLa Kyoto [4] (cell cycle stage: mitosis), 53.2 °C.

For “MAGNFDSEERSSWYWGRLSRQEAVALLQGQRHGVFLVRDSSTSPGDYVLSVSENSRVSHYIINSSGPRPPVPPSPAQPPPGVSPSRLRIGDQEFDSLPALLEFYKIHYLDTTTLIEPVSRSRQGSGVILRQEEAEYVRALFDFNGNDEEDLPFKKGDILRIRDKPEEQWWNAEDSEGKRGMIPVPYVEKYRPASASVSALIGGNQEGSHPQPLGGPEPGPYAQPSVNTPLPNLQNGPIYARVIQKRVPNAYDKTALALEVGELVKVTKINVSGQWEGECNGKRGHFPFTHVRLLDQQNPDEDFS [CRK]”, the “solubility in G1/S (log2)” value in the series with HeLa Kyoto [1] was found to be 0.342. The thermal stability score in the series with HeLa Kyoto [2] (setting [5]) is -0.547; in the series on HeLa Kyoto [2] (cell cycle stage: mitosis), -1.21. The “solubility change mitosis (log2)” value with HeLa Kyoto [3] was -0.104. Further, the values for the melting temperature in the series with HeLa Kyoto [4] (cell cycle stage: G1/S) and with HeLa Kyoto [4] (cell cycle stage: mitosis) were 50.6 °C and 51.5 °C, respectively.
